Experimental data as given in patent US20240158497A1 (published 2024).

B1: MAb16683 (antibody, V domains shown)
VH: QVQLVESGGGLVKPGGSLRLSCAASGFTFSDYYMTWIRQTPGKGLDWVSYISSSGTNKYNADSVKGRFTISRDNAKNSLYLQMNSLRAEDTAVYYCVRDPPWGMDVWGQGTTVTVSS
VL: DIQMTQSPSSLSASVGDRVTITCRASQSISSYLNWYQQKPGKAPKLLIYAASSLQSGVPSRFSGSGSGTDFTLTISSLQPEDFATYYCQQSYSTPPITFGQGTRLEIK
notes: hIgG4 isotype control used
B2: MAb16659 (antibody, V domains shown)
VH: QVQLVQSGPEVKKPGSSVKVSCKASGGTIDRNEITWVRQAPGQGLEWMGVIIPILGEAHYERKFQGRLTITMDESTSTAYMELSNLRSEDTAVYYCARERAARGYLDYWGQGTLVTVSS
VL: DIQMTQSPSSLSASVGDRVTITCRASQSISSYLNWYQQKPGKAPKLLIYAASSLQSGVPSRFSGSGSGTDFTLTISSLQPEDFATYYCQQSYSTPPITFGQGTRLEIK
notes: hIgG4 isotype control used
B3: MAb16669 (antibody, V domains shown)
VH: EVQLVESGGGLVQPGGSLRLSCAASGFTFSSYAMNWVRQAPGKGLEWVSAISGSGDSTYYTDSVKGRFTISRDNSKNTLYLQMNTLRAEDTAVYYCAKEEIVMLVGATPGWFDPWGQGTLVTVSS
VL: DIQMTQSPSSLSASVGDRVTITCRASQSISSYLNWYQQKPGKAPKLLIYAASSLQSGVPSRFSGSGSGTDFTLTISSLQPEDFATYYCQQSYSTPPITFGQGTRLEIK
notes: hIgG4 isotype control used
B4: MAb16656 (antibody, V domains shown)
VH: EVQLVESGGGLVQPGRSLRLSCAASGFTLDDFAMHWVRQAPGKGLEWVSGISWNSGNIGYADSVKGRFTISRDNARNSLYLQMNSLRAEDTALYYCTSGYYLYYAMDVWGQGTTVTVSS
VL: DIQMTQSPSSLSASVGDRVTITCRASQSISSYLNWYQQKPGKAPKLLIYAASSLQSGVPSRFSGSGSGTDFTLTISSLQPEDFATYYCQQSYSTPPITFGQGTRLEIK
notes: hIgG4 isotype control used
B5: MAb16665 (antibody, V domains shown)
VH: QVQLVESGGGVVQPGRSLRLACAASGFTFRSYGMHWVRQAPGKGLEWVAVIWYDGSNKYYTDSVKGRFTISRDNSKNTLYLQMNSLRAEDTAMYYCAIDKWATVTTYLFDYWGQGTLVTVSS
VL: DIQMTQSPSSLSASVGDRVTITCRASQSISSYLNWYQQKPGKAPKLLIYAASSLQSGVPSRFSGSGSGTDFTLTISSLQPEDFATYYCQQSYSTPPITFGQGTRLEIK
notes: hIgG4 isotype control used
B6: MAb16637 (antibody, V domains shown)
VH: QVQLVQSGAEVKKPGASVKVSCKASGYTFTSLGISWVRQAPGQGLEWMGWISAYSGNRDYAQKFQGRVTMTTDTSTSTAYMELRSLRSDDTAVYYCARSLRFDYWGQGTLVTVSS
VL: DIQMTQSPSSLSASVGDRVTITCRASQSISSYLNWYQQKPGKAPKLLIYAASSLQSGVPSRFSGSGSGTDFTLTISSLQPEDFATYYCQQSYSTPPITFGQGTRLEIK
notes: hIgG4 isotype control used
B7: MAb16622 (antibody, V domains shown)
VH: EVQLVESGGGVVRPGGSLRLSCTASGFTFDDYGMSWVRQAPGKGLEWVSGINWNGGRTEYADAVKGRFIISRDNAKNSLYLQMNSLRAEDTALYFCARTELRWDYWGQGTLVTVSS
VL: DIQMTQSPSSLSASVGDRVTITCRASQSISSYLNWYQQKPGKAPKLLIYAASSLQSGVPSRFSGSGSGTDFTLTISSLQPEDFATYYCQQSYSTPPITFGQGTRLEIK
notes: hIgG4 isotype control used
B8: MAb16664 (antibody, V domains shown)
VH: QVQLVQSGTEVKKPGSSVKVSCKASGGTFSTYPINWVRQAPGQGLEWMGGIIPIFGTASYAQKFQGRVAITTDESTSTAYMELNSLRSEDTAVYYCARERPNWGSNDYWGQGTLVTVSS
VL: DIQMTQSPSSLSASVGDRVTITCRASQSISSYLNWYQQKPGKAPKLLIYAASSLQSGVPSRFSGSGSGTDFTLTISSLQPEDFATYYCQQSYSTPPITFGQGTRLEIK
notes: hIgG4 isotype control used
B9: MAb16662 (antibody, V domains shown)
VH: EVQLVESGGGLVQPGGSLRLSCTASGFTFSNYAIFWVRQAPGKGLEYVSGISNNGVTKYYADSVRDRFTISRDNSRNTVSIQMDSLRTEDMAVYYCARENWGSDDGFDIWGQGTMVTVSS
VL: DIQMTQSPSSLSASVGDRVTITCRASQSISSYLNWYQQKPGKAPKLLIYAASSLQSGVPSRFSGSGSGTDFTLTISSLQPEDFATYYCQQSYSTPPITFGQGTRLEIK
notes: hIgG4 isotype control used
B10: MAb16676 (antibody, V domains shown)
VH: QVQLVQSGAEVMKPGASVKVSCRASGYTFSSYDINWVRQAPGQGLEWMGWISTATGNTNYPQKVQGRVTMTTDTSTNTAYMELRSLRSDDTAVYYCTREGNSKGWLDPWGQGTLVTVSS
VL: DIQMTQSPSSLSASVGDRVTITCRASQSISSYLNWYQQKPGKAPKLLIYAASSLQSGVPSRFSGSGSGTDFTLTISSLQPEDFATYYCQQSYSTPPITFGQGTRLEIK
notes: hIgG4 isotype control used

Target: T1, human GP130 full length extracellular domain with C-terminal myc-myc-hexahistidine tag (human, UniProt P40189 23-619)
T1 construct: Monomeric; also called human GP130-MMH; hGP130-mmH
Assay: Luminex, antigen captured on anti-myc beads
Experimental: (§1) Aliquots of microspheres with immobilized anti-myc monoclonal antibodies, prepared as described above, were added individually to 1 mL of the each of these protein supernatants and to 500 uL of purified GP130 protein. The microspheres were gently mixed, incubated for two hours at 25° C., washed twice with 1 mL of DBPS, centrifuged to remove the supernatant and finally resuspended in 1 mL of DPBS buffer. Forty eight μL of anti-myc IgG coupled microspheres from individual reactions with full length human GP130 and with each of the human GP130 domain proteins were withdrawn and mixed together in 3.6 mL of PBS+20 mg/mL BSA+0.05% sodium azide (blocking buffer).
(§2) From this mixed pool, 75 μL of microspheres were plated per well on a 96 well filter plate (Millipore, Cat. No: MSBVN1250) and mixed with 25 μL of individual anti-human GP130 monoclonal antibodies (0.5 or 5 μg/mL), incubated for two hours at 25° C. and then washed twice with 200 μL of DPBS with 0.05% Tween 20 (washing buffer). To detect and quantify the amounts of bound anti-GP130 antibody levels to individual microspheres, either 100 μL of 2.5 μg/mL R-Phycoerythrin conjugated goat F(ab′)2 anti-human kappa (Southern Biotech, Cat #2063-09) in blocking buffer, was added and incubated for 30 minutes at 25° C. After 30 minutes, the samples were washed twice with 200 μL of washing buffer and resuspended in 150 μL of wash buffer. The Median Fluorescence intensity (MFI) of the microspheres was measured in a Luminex Analyzer.

Binder | Luminex MFI signal [MFI]
B1 | 15200
B2 | 17100
B3 | 17600
B4 | 15900
B5 | 16300
B6 | 16900
B7 | 18500
B8 | 19300
B9 | 13900
B10 | 18100

Target: T2, human GP130 delta D1 with C-terminal myc-myc hexahistidine tag (human, UniProt P40189 124-619)
T2 construct: used as CHO supernatant; also called human GP130 delta D1-MMH; GP130 Delta D1 extracellular domain
Assay: Luminex, antigen captured on anti-myc beads
Experimental: as §1, §2

T2 sequence (P40189 other isoform, or with tags, fused parts or gaps mutant limits assumed): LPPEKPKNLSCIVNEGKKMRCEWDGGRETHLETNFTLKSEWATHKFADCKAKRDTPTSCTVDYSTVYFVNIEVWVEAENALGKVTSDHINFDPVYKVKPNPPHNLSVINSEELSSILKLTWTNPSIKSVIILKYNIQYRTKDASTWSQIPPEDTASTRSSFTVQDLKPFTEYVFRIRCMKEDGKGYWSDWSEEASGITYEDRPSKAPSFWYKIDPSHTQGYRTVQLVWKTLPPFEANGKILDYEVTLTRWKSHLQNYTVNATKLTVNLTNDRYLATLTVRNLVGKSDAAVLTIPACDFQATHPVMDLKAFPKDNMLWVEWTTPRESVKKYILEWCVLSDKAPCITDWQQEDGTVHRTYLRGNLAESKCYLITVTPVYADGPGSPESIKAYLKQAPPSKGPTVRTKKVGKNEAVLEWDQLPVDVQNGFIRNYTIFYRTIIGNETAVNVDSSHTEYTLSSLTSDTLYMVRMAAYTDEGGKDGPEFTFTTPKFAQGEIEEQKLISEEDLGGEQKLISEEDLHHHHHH

Binder | Luminex MFI signal [MFI]
B1 | 12000
B2 | 49
B3 | 12600
B4 | 48
B5 | 119
B6 | 342
B7 | 391
B8 | 442
B9 | 3050
B10 | 364

Target: T3, human GP130 delta D1-D3 with C-terminal myc-myc hexahistidine tag (human, UniProt P40189 329-619)
T3 construct: used as CHO supernatant; also called human GP130 delta D1-D3-MMH; GP130 Delta D1-D3 extracellular domain
Assay: Luminex, antigen captured on anti-myc beads
Experimental: as §1, §2

T3 sequence (P40189 other isoform, or with tags, fused parts or gaps mutant limits assumed): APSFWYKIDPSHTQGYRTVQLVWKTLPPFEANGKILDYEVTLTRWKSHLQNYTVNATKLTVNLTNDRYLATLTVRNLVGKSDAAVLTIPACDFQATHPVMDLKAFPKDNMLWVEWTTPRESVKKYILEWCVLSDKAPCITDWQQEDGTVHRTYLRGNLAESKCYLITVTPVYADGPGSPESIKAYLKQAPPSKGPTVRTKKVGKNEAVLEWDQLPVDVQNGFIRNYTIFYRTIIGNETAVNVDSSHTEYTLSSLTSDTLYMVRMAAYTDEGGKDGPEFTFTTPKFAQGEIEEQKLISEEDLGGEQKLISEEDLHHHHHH

Binder | Luminex MFI signal [MFI]
B1 | 20900
B2 | 22
B3 | 15100
B4 | 17
B5 | 116
B6 | 861
B7 | 20
B8 | 419
B9 | 16
B10 | 686

Target: T4, human gp130 expressed endogenously on IMR-32/Stat3-luc cells (human, UniProt P40189 23-918)
T4 construct: Endogenous gp130 of the human neuroblastoma line IMR-32
T4 sequence: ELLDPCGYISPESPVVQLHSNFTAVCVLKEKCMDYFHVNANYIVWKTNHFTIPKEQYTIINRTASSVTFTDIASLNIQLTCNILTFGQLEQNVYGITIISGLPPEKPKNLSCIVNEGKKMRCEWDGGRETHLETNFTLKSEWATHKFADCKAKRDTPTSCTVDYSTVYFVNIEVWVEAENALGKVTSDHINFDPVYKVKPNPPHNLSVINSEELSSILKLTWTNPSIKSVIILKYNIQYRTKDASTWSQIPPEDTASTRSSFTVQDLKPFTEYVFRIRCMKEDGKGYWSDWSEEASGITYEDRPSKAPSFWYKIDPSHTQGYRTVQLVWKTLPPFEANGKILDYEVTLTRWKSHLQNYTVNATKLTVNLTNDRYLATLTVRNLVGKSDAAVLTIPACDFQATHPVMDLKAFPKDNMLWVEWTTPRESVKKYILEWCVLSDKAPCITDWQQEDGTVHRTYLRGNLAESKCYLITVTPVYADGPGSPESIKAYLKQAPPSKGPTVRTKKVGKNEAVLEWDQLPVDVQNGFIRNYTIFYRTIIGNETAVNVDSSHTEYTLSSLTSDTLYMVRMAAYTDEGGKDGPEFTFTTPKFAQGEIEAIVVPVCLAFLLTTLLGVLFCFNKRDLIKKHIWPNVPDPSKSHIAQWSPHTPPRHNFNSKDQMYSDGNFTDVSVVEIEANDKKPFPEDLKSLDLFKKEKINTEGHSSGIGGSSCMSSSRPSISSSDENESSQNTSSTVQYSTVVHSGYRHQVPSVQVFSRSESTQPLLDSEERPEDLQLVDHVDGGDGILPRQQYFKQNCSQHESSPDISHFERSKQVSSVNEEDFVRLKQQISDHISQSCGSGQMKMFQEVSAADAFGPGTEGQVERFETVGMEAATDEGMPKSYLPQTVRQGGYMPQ
Assay: FACS, 10 nM Ab, IMR-32/Stat3-luc cells, no hGP130.mmh
Source text: In order to assess cell binding by anti-GP130 antibodies of the invention two cell lines were generated. One cell line generated was HEK293 cells stably over-expressing full length (FL) human gp130 (amino acids 1-918 of accession #P40189 with leucine at position 2 changed to valine, a natural variant) along with a luciferase reporter (Stat3-luciferase, Stat3-luc, SA Bioscience, #CLS-6028L). The cells were sorted twice using flow cytometry for high expression of gp130. It is known hereafter as HEK293/Stat3-luc/gp130-2 X Sort. IMR-32 cells (human Neuroblastoma, ATCC), were also evaluated for cell binding as these cells express gp130 endogenously and were used for bioassays. The cells used for binding were generated to stably express a luciferase reporter (Stat3-luciferase, Stat3-luc, SA Bioscience, #CLS-6028L), and are referred to hereafter as IMR-32/STAT3-Luc cells.
For the FACS analysis, 10 nM of the antibodies were used to stain 0.5×10⁶ cells/well of each cell type at 4° C. in PBS (without calcium and magnesium) containing 2% FBS for 30 minutes. IMR-32/STAT3-luc cells were incubated with 1 mg/mL mouse IgG for 30 minutes at 4° C. to block Fc receptors prior to adding the antibodies. To test whether the anti-gp130 antibody binding is specific for gp130 on the IMR-32 cells, antibodies were added to IMR-32/Stat3-luc cells with or without being pre-bound to 1000 nM of recombinant protein of the ecto-domain of human gp130 fused to myc-myc-his tag (hgp130.mmh) for 30 minutes at 25° C. […] Cells were fixed using BD CytoFix™ (Becton Dickinson, #554655) and analyzed on an IQue® (Intellicyt®) Flow Cytometer. Unstained and secondary antibody alone controls were also tested for all cell lines. The results were analyzed using ForeCyt® (IntelliCyt®) software to determine the geometric means of fluorescence for viable cells.

Binder | MFI - Normalized to Unstained Control [ratio]
B1 | 9
B2 | 8
B3 | 6
B4 | 12
B5 | 5
B6 | 9
B7 | 5
B8 | 7
B9 | 5
B10 | 9
